Laboratory results: patent publication US20240026407A1, “MODIFICATION OF SAPONINS” (GLAXOSMITHKLINE BIOLOGICALS SA, priority 2020, published 2024)

Key:
Type in all cases: biochemical, Quillaja saponaria
[1] = Experiment 4-3: screening of glucosidases for deglycosylation with QS-18 in crude bark extract (1 in 2000 dilution) at pH 7 and 30 deg C; settings: CBE 1 in 2000 dilution, pH 7, 30 degC, 1 h; % conversion of QS-18 by LCMS/MS
[2] = Experiment 4-1: screening of glucosidases for deglycosylation with purified QS-18 (0.04 mg/ml) at pH 7.5 and room temperature; settings: pH 7.5, room temperature, 20 h, clarified E. coli lysate, QS-18 2150 to QS-21 1988 by LCMS/MS
Outline: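 Deglycosylation measured by LC-MS/MS as % conversion after 20 h room-temperature incubation of QS-18 phenyl fraction (0.04 mg/ml final) with polymyxin B/lysozyme lysates, pH 7.5 phosphate, of E. coli BL21(DE3) expressing each enzyme; MeCN quench. Positives exceeded negative control by >3 S.D.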

[3] = Experiment 4-4: screening of glucosidases for deglycosylation of QS-18 in crude bark extract (1 in 20 dilution) to QS-21; settings: CBE 1 in 20 dilution, pH 6, 25 degC, 18 hours; % conversion of Middle Peak by UV HPLC
Outline: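 Clarified glucosidase lysates were incubated with pH 6 crude bark extract (1 in 20) in potassium phosphate buffer pH 6 for 18 h at 25 °C with shaking, then quenched with MeCN. UV HPLC with MS/MS-supported peak identity; activity is % conversion of the extract's Middle Peak (QS-18 family) toward the QS-21 peak.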

[4] = Experiment 4-2: screening of glucosidases for deglycosylation with purified QS-18 (1 mg/ml) at pH 6 and 30 deg C; settings: pH 6, 30 degC, 18 hrs, clarified lysate, LCMS/MS
Outline: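 Enzyme activity derived from LC-MS/MS analysis after MeCN quench. Substrate QS-18 (1 mg/ml final) was exposed overnight (18 h, 30 °C, pH 6 phosphate buffer) to clarified lysates containing candidate glucosidases.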

[5] = Experiment 5-1: screening of additional glucosidases for deglycosylation with purified QS-18 (0.04 mg/ml) at pH 7.5 and 30 deg C; settings: pH 7.5, 30 degrees C, 18 hours, LCMS/MS
Description: The 94 additional genes, together with positive control (DNA encoding SEQ ID No. 262) and negative control, were transformed, expressed, lysed and reacted in the same manner as described above for Experiment 4-1, except the reaction was incubated at 30 degrees C. for 18 hours.
Samples were analysed by LCMS/MS according to the procedure in Experiment 4-1.

[6] = Experiment 5-3: screening of additional glucosidases for deglycosylation with QS-18 in treated bark extract (80%) at pH 6 and 35 deg C; settings: TBE 80% (QS-21 approx. 4 g/L), pH 6, 35 deg C; UV HPLC
Description: Experiment 5-1 was repeated, replacing CBE with Treated Bark Extract (TBE) at pH 6. TBE was prepared from CBE by PVPP treatment and concentration, to provide TBE with a QS-21 concentration of approximately 4 g/L. TBE was adjusted to pH 6 by dropwise addition of 2M NaOH with stirring.

[7] = Experiment 5-2: screening of additional glucosidases for deglycosylation with QS-18 in crude bark extract (80%) at pH 6 and 35 deg C; settings: CBE 80%, pH 6, 35 deg C, 18 hours; UV HPLC
Outline: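 Deglycosylation of QS-18 was monitored by UV HPLC after MeCN/AcOH quench with hexanophenone. The reaction ran 18 hours at 35 deg C, shaking, combining clarified pH 6 lysate with crude bark extract neutralised to pH 6 by NaOH.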

B1: 250 (protein, listed as Modestobacter marinus)
chain: MTATTPSDPTALPLEQKVRLLSGQDFWSTPAVAEAGLSSVVLTDGPHGVRRQQGEFDQIGLLESVPATCFPPAVAVGSSWDPEVAERIGAAVGVEARAIGVPVVLGPGVNIKRSPLCGRNFEYYSEDPLLAGVLGAAHVRGQQGEGVGASVKHFAANNQETQRMQVSADVDERTLREVYLPAFERVVTESRPATVMCAYNKVNGVYASQHRWLLTEVLREEWGFRGAVVSDWGAVDDRVAALEAGLDLQMPGDSGAGNALVVEAVRAGVLDEAVVDRSVRRVAALAGLVAEPTAGFDVEAHHALARELAAGCAVLLKNDGGTLPLTAGTRITVVGEFARTPRFQGGGSSHVNATRVDDALTALQGAVEVTFAPGFTLDGSGDAAALREEAVAAARGAEVTVVFAGLAEADESEGFDRTTLDLPAGQVDLIRAVAAVSLRTVVVLSSGSVVSLEGWHDDVDAVLAGFLLGQAGGGALADLLTGAVDPSGRLAETIPLRLQDTPSYLTFPGEQGHARYGEGVMVGYRHYETAEQPVRYPFGHGLSYTSFATTDLQVRTRGADGATATVTVTNTGERAGRHVVQVYVATAAGPVRRPARELRAFTKVSLAAGESATVAFELDRRAFAYWDVREHDWVVAPGEYSVQIGASAADVLDQRTVTLAGDDLVPELTLQSSVAEWFAHPVAGPQLLAGFVAAMPDGAAEMHEGMLQMIGSMPMRRFAADFGSAVPAAELDRLMAAARAAR
Expt 4-3 % conv [1]: 2.6% | Expt 4-1 % conv [2]: 88.5% | Expt 4-4 % conv [3]: <3% | Expt 4-2 % conv [4]: 36.0%

B2: 262 (protein, listed as Modestobacter marinus)
chain: MNPASSTRTDTMTDTTARTDSRLTDALAALSLEQKVQLLTGRDFWNTWPIEEIGLRRILVSDGPSGVRGEVWDERDPSLNLPSATALASAWDPDIARRYGAAAAVEARRKGVDVVLGPTINLHRSPLGGRHFEAFSEDPVLTAELAAAYVTGVQDNGVGATPKHYVANDFETDRFTVDVRADERTLRELYLLAFEKAVTEARAWLVMSAYNGINGATATENDLLETPLNSEWGFDGVVVSDWTAVRSLESARSSQDLVMPGPVGPWGDALVEAVRTGAIDESVVDRKVLRILTLAQRVGALEGSPAIDPVWVEDGVALAREAAVEGTVLLENRDELPWDATSLRKVAVIGNNAAAARTQGGGSATVLPEYTVSPLDGVRAALPDAEVSYSLGAVVQDGLVELPLAELTNPVTGGPGLRARFLTADGAELFGEDRRKSVLVYFGGDAPIAAAATYELTARWTPTESQTVRLGFALIGAAQLYVDGELLVESDLQPSGTDLGAAFMNPLTASAEVELVAGKPVDVRLVHDLSAKEGFAAHALFLQLGTEPAEVDEDALIAEAAEAAEAADVVLVVVGTNSIVESEGYDRESLSLPGRQDDLVRAVVAANPRTVVLVNAGAPVLLPWRDDVAALLLGWFGGQEFGNAVADVLLGVAEPGGRLPTTWPAAEADVPVLSCTPVDGVVEYTEGIHIGYRAWLRSGATPAYWFGSGQGYTCVELTGVEAPSRARPGEIVTVSVEVANRGERDGKQVVQVYAEKPDSTVDRPVRWLVGSAPVRVPAGQTAQVEVAVPTRYLAHWAGGWQYEPGVYRLRVGTTAVELPLETTLEVSA
Expt 4-3 % conv [1]: 99.7% | Experiment 5-1 % conv [5]: 98.7% | Expt 4-1 % conv [2]: 99.5% | Experiment 5-3 % conv [6]: 8.5% | Expt 4-4 % conv [3]: 68.6% | Experiment 5-2 % conv [7]: 5.5% | Expt 4-2 % conv [4]: 97.9%
